This data set relates to ProQ (Escherichia coli (BW25113-derived; ASKA pCA24N clone or pMCSG7 clone)). The data set can be described thus: tryptophan fluorescence titration. The following applies: 20 nM ProQ, excitation 295 nm, emission 355 nm, buffer, salt, pH and temperature not in the material.
For rpoS mRNA, the dissociation constant (Kd) (in general, the equilibrium constant for the complex coming apart) came to 0.0195 µM.
In the case of proP P1 mRNA it was 0.017 µM.
proP P2 mRNA: the Kd was 0.0116 µM.

For the origin of these results see paper PMC3808355.
